Results on one substance are retold here after patent publication US20240269176A1.

Assay [1] deals with VH1VL1-CD8ATD-CD137CSD-CD3zSSD fusion.
The target of assay [2] is VH2VL1-CD8ATD-CD137CSD-CD3zSSD fusion.
Assay [3] addresses VH3VL1-CD8ATD-CD137CSD-CD3zSSD fusion.
Assay [4] deals with VL1VH3-CD8ATD-CD137CSD-CD3zSSD fusion.
VL1VH3-CD8ATD-CD137CSD-CD3zSSD fusion, sequence (chain, as listed by the source): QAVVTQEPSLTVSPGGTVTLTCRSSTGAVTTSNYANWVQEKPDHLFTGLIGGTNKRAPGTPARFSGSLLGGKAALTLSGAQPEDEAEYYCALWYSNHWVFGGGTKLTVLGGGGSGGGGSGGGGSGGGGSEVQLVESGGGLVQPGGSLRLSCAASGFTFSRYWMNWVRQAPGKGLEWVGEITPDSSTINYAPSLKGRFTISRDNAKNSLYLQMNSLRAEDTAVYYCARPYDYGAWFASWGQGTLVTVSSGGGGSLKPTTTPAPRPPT

VH3VL1-CD8ATD-CD137CSD-CD3zSSD fusion, sequence (chain, as listed by the source): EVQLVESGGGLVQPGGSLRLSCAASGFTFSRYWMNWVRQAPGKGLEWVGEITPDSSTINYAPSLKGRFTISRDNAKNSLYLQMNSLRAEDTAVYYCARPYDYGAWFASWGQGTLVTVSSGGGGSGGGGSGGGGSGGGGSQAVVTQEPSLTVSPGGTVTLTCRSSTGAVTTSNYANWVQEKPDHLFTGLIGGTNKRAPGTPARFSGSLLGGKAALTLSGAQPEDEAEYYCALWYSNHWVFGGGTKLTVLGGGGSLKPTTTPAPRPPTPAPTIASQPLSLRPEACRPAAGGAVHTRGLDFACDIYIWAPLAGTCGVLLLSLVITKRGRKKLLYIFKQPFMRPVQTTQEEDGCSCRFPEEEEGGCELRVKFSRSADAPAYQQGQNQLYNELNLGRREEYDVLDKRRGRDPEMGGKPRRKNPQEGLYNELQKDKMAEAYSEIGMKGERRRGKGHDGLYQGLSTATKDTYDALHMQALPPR
VH2VL1-CD8ATD-CD137CSD-CD3zSSD fusion, sequence (chain, as listed by the source): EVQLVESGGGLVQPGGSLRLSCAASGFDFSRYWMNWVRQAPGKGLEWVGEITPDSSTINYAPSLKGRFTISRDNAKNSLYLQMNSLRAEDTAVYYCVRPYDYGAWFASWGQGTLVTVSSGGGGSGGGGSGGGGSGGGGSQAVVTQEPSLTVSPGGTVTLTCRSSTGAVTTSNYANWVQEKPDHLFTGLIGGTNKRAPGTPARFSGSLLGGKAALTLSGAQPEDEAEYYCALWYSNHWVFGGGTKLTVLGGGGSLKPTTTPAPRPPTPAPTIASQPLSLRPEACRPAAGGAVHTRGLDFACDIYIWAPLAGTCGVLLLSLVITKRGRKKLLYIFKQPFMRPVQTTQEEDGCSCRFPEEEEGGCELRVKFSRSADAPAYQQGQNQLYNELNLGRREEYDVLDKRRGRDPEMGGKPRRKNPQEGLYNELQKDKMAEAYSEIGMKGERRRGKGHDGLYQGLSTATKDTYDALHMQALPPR
VH1VL1-CD8ATD-CD137CSD-CD3zSSD fusion, sequence (chain, as listed by the source): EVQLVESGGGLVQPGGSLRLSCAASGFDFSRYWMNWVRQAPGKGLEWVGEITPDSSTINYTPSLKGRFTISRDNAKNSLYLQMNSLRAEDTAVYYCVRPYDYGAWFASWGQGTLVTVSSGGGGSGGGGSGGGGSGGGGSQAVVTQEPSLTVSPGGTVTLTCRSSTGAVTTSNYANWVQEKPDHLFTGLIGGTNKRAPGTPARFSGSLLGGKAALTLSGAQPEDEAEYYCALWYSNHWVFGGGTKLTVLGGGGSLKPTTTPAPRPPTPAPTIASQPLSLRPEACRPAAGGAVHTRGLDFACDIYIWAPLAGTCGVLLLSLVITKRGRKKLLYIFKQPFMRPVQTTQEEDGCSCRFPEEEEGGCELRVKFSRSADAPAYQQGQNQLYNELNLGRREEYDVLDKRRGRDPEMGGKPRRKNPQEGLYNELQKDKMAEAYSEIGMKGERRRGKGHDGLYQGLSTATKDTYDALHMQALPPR

In the case of “anti-CD20 (GA101) D246A P329G IgG1 (antibody)”, in assay [1], the EC50 of NFAT-luciferase activation of anti-P329G CAR Jurkat cells, WSUDLCL2 target cells (5:1); VH1 x VL1 was 8.14 pM. The same substance returned an EC50 of NFAT-luciferase activation of anti-P329G CAR Jurkat cells, WSUDLCL2 target cells (5:1); table row VH2 x VL1 in assay [2] of 10.4 pM. For the same substance, the EC50 of NFAT-luciferase activation of anti-P329G CAR Jurkat cells, WSUDLCL2 target cells (5:1); VH3 x VL1 in assay [3] was determined as 5.82 pM. Besides, the EC50 of NFAT-luciferase activation of anti-P329G CAR Jurkat cells, WSUDLCL2 target cells (5:1); VL1 x VH 3 in assay [4] stood at 6.19 pM.
